From paper PMC4361584, “Glyceraldehyde 3-Phosphate Dehydrogenase-Telomere Association Correlates with Redox Status in Trypanosoma cruzi”

Columns and labels:
[1] = biological target: T1, rTcGAPDH (glyceraldehyde 3-phosphate dehydrogenase) (Trypanosoma cruzi, UniProt P22513 1-359); experiment: EMSA; 50 uM GAPDH; 1x from 5x buffer: 20 mM HEPES pH 6.0, 1 mM EDTA, 10 mM (NH4)2SO4, 1 mM DTT, 0.2% Tween 20, 30 mM KCl; 0.1 ug poly-lysine, 1 ug poly[d(I-C)], 20 ul, on ice 15 min; 6% native gel, 0.25x TBE; details: protein: recombinant; tags: His-tag; chain copies: 4; label: DIG-11-ddUTP at 3' end; single strand
T1 sequence (P22513 whole entry): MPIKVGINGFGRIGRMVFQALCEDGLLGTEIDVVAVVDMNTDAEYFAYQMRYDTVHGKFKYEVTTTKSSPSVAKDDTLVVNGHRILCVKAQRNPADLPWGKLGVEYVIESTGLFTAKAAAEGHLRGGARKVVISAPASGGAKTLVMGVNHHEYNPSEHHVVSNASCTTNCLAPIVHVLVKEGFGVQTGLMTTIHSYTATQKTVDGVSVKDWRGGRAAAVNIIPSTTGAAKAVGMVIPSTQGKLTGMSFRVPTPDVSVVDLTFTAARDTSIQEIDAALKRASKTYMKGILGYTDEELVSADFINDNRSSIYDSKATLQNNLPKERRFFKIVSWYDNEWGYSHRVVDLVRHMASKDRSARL

[2] = biological target: T1, rTcGAPDH (glyceraldehyde 3-phosphate …); experiment: EMSA; supershift with anti-GAPDH serum; 1x from 5x buffer: 20 mM HEPES pH 6.0, 1 mM EDTA, 10 mM (NH4)2SO4, 1 mM DTT, 0.2% Tween 20, 30 mM KCl; 0.1 ug poly-lysine, 1 ug poly[d(I-C)], 20 ul, on ice 15 min; 6% native gel, 0.25x TBE; details: protein: recombinant; tags: His-tag; chain copies: 4; label: DIG-11-ddUTP at 3' end (terminal transferase); single strand

Row | Binder | binding result [1] | binding result [2]
1 | TTAGGGTTAGGGTTAGGG (ssDNA) [ss (TTAGGG)3] | binds | –
2 | TTAGGG (ssDNA) [ss (TTAGGG)1] | binds | –
3 | TTAGGGTTAGGGTTAGGGTTAGGGTTAGGGTTAGGG (ssDNA) [ss (TTAGGG)6] | – | binds
